Data as given in patent publication US20210393776A1 (FABION PHARMACEUTICALS, published 2021).
Changes are numbered by the printed parent chain. Where two headings read alike, the source gives them in different places.

Assays:
[1] = molecular target: T1, recombinant cyno CD3epsilon/delta Fc(K-H) heterodimer (cynomolgus); experiment: ELISA, immobilised antigen, biotinylated protein, streptavidin-HRP, ABTS, OD405
T1 construct: also called cynomolgus CD3epsilon/delta; recombinant cyno CD3epsilon/delta heterodimeric Fc protein; copies: 1 + 1

[2] = molecular target: T2, human CD3epsilonAA1-27.Fc (human); experiment: as above
T2 construct: also called recombinant human CD3epsilon N-terminal peptide (aa1-27.Fc fusion); CD3epsilon N-terminal amino acid 1-27 peptide Fc fusion

[3] = molecular target: T3, full length human EpCAM on CHO cells (human, UniProt P16422 24-314); experiment: flow cytometry on CHO cells stably expressing full length human EpCAM, PE detection
T3 construct: CHO cells stably expressing full length human EpCAM; also called hu-EpCAM-FL; human EpCAM-FL
T3 sequence: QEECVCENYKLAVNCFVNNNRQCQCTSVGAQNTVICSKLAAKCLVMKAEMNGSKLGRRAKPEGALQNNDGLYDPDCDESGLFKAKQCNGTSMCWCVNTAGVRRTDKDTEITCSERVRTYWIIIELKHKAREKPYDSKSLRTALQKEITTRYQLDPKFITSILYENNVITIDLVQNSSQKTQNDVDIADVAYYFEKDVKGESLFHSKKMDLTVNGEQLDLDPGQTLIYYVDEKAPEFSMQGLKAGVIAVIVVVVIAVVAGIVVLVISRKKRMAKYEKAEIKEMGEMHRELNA
Protocol: (§1) In general, cells were blocked in 1% BSA/PBS for 1 hr at 4 C and antibodies of interest were diluted into 1% BSA/PBS were added to blocked cells for incubation at 4° C. for 1 hr. after one wash with 1% BSA/PBS, staining procedures vary depending on the availability of antibodies or fluorescent antibody conjugate. In some case, direct fluorescence conjugates were used. In other cases, anti affinity tag antibodies (secondary antibody) were used to incubate with the cells followed by anti-species antibody conjugated with a particular fluorophore. In some other experiments, antibody (or other affinity reagent such as streptavidin) with fluorescence conjugate was used directly as secondary antibody (secondary reagent).

[4] = molecular target: T1, recombinant cyno CD3epsilon/delta …; experiment: ELISA, immobilised antigen, biotinylated protein, streptavidin-HRP, ABTS, OD405; remark: listed apart in the source
[5] = molecular target: T2, human CD3epsilonAA1-27.Fc; experiment: as above; remark: listed apart in the source
[6] = molecular target: T3, full length human EpCAM on CHO cells; experiment: flow cytometry on CHO cells stably expressing full length human EpCAM, PE detection; remark: listed apart in the source
Protocol: as §1

[7] = molecular target: T1, recombinant cyno CD3epsilon/delta …; experiment: ELISA, immobilised antigen, biotinylated protein, streptavidin-HRP, ABTS, OD405; remark: listed apart in the source
[8] = molecular target: T2, human CD3epsilonAA1-27.Fc; experiment: as above; remark: listed apart in the source
[9] = molecular target: T3, full length human EpCAM on CHO cells; experiment: flow cytometry on CHO cells stably expressing full length human EpCAM, PE detection; remark: listed apart in the source
Protocol: as §1

[10] = molecular target: T1, recombinant cyno CD3epsilon/delta …; experiment: ELISA, immobilised antigen, biotinylated protein, streptavidin-HRP, ABTS, OD405; remark: listed apart in the source
Protocol: (§2) MAXISORP® plates were used for ELISA binding assays. 50 μl of 1 μg/ml of antigens in 50 mM NaHCO₃were used to coat the plates at 4° C. overnight followed by incubation with 200 μl of 5% dry milk/TBS-0.05% TWEEN®-20 (i.e., polysorbate 20) (MTBS-T)/well. Antibodies were usually diluted in 5% MTBS-T and transferred to antigen coated plates and incubated for 1 hr with gentle shaking at room temperature. Bound antibodies were detected either by streptavidin-HRP (for detecting biotinylated antibodies) or anti-his tag-HRP conjugate (for his tagged antibodies). ABTS™ (i.e., 2,2′-azino-bis(3-ethylbenzothiazoline-6-sulphonic acid) solution in 50 mM citrate buffer was used for detection with OD405 measurement on using a microplate reader (Biotek).

[11] = molecular target: T2, human CD3epsilonAA1-27.Fc; experiment: as above; remark: listed apart in the source
Protocol: as §2

B1: EpCAM1.2-(H)-hu-1F3.1 Fab (bispecific antibody)
heavy chain Fd with anti-EpCAM scFv EpCAM1.2 at the N-terminus: EVQLVESGGGLVQPGGSLRLSCAASGFTFSNYWMSWVRQAPGKGLEWVANIKQDGSEKFYVDSVKGRFTISRDNAKNSLYLQMNSLRAEDMAVYYCARVGGAWELGYWGQGTLVTVSAGGGGSGGGGSGGGGSGAQSVLTQPPSVSGAPGQRVTISCTGSSSNIGSYYGVHWYQQLPGTAPKLLIYSDTNRPSGVPDRFSGSKSGTSASLAITGLQAEDEADYYCQSYDSSLSGRVFGGGTKMTVLGRAEVQLVESGGGLVQPGGSLRLSCAASGFTFSTYAMNWVRQAPGKGLEWVSRIRSKYNNYATYYADSVKDRFTISRDDSKNTLYLQMNSLRAEDTAVYYCARHGNFGNSYVSWFAYWGQGTMVTVSSASTKGPSVFPLAPCSRSTSESTAALGCLVKDYFPEPVTVSWNSGALTSGVHTFPAVLQSSGLYSLSSVVTVPSSNFGTQTYTCNVDHKPSNTKVDKTVGGGGSHHHHHHH
light chain, unfused: QAVVTQEPSLTVSPGGTVTLTCRSSTGAVTTSNYANWVQQKPGQAPRGLIGGTNKRAPGTPARFSGSLLGGKAALTLSGVQPEDEAEYYCALWYSNLWVFGGGTKLTVLGQPKAAPSVTLFPPSSEELQANKATLVCLISDFYPGAVTVAWKADSSPVKAGVETTTPSKQSNNKYAASSYLSLTPEQWKSHRSYSCQVTHEGSTVEKTVAPTECS
notes: member of group m20; also called EpCAM1.2-(H)-hu-1F3 Fab
**Q.** Does B1 bind [1]?
**A.** binds

**Q.** Does B1 bind [2]?
**A.** binds

**Q.** Does B1 bind [3]?
**A.** binds

B2: OKT3 Fab (Fab, V domains shown)
VH: not shown
VL: QIVLTQSPAIMSASPGEKVTMTCSASSSVSYMNWYQQKSGTSPKRWIYDTSKLASGVPAHFRGSGSGTSYSLTISGMEAEDAATYYCQQWSSNPFTFGSGTKLEINR
notes: Anti-CD3 Fab; biotinylated in the assays
**Q.** Does B2 bind [4]?
**A.** no binding (tested: about 80 nM (last point; axis to 100 nM))

**Q.** Does B2 bind [5]?
**A.** no binding (tested: about 80 nM (last point; axis to 100 nM))

**Q.** Does B2 bind [6]?
**A.** no binding

B3: EpCAM1.1-(L)-hu-1F3.1 Fab (bispecific antibody)
heavy chain Fd (VH-CH1), unfused: EVQLVESGGGLVQPGGSLRLSCAASGFTFSTYAMNWVRQAPGKGLEWVSRIRSKYNNYATYYADSVKDRFTISRDDSKNTLYLQMNSLRAEDTAVYYCARHGNFGNSYVSWFAYWGQGTMVTVSSASTKGPSVFPLAPCSRSTSESTAALGCLVKDYFPEPVTVSWNSGALTSGVHTFPAVLQSSGLYSLSSVVTVPSSNFGTQTYTCNVDHKPSNTKVDKTVGGGGSHHHHHHH
light chain with anti-EpCAM scFv EpCAM1.1 at the N-terminus: QVQLQQSGGGLVQPGGSLRLSCAASGFTFSNYWMSWVRQAPGKGLEWVANIKQDGSEKFYVDSVKGRFTISRDNAKNSLYLQMNSLRAEDMAVYYCARVGGAWELGYWGQGTLVTVSAGGGGSGGGGSGGGGSGAQSVLTQPPSVSGAPGQRVTISCTGSSSNIGSYYGVHWYQQIPGTAPKLLIYSDTNRPSGVPDRFSGSKSGTSASLAITGLQAEDEADYYCQSYDSSLSGRVFGGGTKVTVLGRAQAVVTQEPSLTVSPGGTVTLTCRSSTGAVTTSNYANWVQQKPGQAPRGLIGGTNKRAPGTPARFSGSLLGGKAALTLSGVQPEDEAEYYCALWYSNLWVFGGGTKLTVLGQPKAAPSVTLFPPSSEELQANKATLVCLISDFYPGAVTVAWKADSSPVKAGVETTTPSKQSNNKYAASSYLSLTPEQWKSHRSYSCQVTHEGSTVEKTVAPTECS
notes: member of group m19; also called EpCAM1.1-(L)-hu-1F3 Fab
**Q.** Which results are given for B3?
**A.** binding result [7]: binds; binding result [8]: binds; binding result [9]: binds

B4: EpCAM1.1-(H+L)-hu-1F3.1 Fab (bispecific antibody)
heavy chain Fd with anti-EpCAM scFv EpCAM1.1 at the N-terminus: B1 heavy chain Fd with anti-EpCAM scFv EpCAM1.2 at the N-terminus with E1Q, V5Q, E6Q, L176I, M243V
light chain with anti-EpCAM scFv EpCAM1.1 at the N-terminus: B3 light chain with anti-EpCAM scFv EpCAM1.1 at the N-terminus
notes: member of group m19; also called EpCAM1.1-(H+L)-hu-1F3 Fab
**Q.** Does B4 bind [7]?
**A.** binds

**Q.** Does B4 bind [8]?
**A.** binds

**Q.** Does B4 bind [9]?
**A.** binds

B5: EpCAM1.2-(L)-hu-1F3.1 Fab (bispecific antibody)
heavy chain Fd (VH-CH1), unfused: B3 heavy chain Fd (VH-CH1), unfused
light chain with anti-EpCAM scFv EpCAM1.2 at the N-terminus: B3 light chain with anti-EpCAM scFv EpCAM1.1 at the N-terminus with Q1E, Q5V, Q6E, I176L, V243L
notes: member of group m20; also called EpCAM1.2-(L)-hu-1F3 Fab
**Q.** Which results are given for B5?
**A.** binding result [1]: binds; binding result [2]: binds; binding result [3]: binds

B6: EpCAM1.2-(H+L)-hu-1F3.1 Fab (bispecific antibody)
heavy chain Fd with anti-EpCAM scFv EpCAM1.2 at the N-terminus: B1 heavy chain Fd with anti-EpCAM scFv EpCAM1.2 at the N-terminus
light chain with anti-EpCAM scFv EpCAM1.2 at the N-terminus: B3 light chain with anti-EpCAM scFv EpCAM1.1 at the N-terminus with Q1E, Q5V, Q6E, I176L, V243L
notes: member of group m20; also called EpCAM1.2-(H+L)-hu-1F3 Fab
**Q.** Does B6 bind [1]?
**A.** binds

**Q.** Does B6 bind [2]?
**A.** binds

**Q.** Does B6 bind [3]?
**A.** binds

B7: EpCAM2.2-(H+L)-hu-1F3.1 MSFP (bispecific antibody)
heavy: QVQLQESGPGLVKPSETLTLTCSVSGGSISGYYWSWIRQPPGMGLEWIGSVHHSGSTSYNPSLKSRVTISVDTSKNQFSLKLNSVTAADTAVYYCARYRGSGLDYWGQGTLVTVSSGGGGSGGGGSGGGGSQSVLTQPPSVSAAPGQKVTISCSGDSSNIGKNYVSWYQQLPGTAPKLLIYENNERPSGVPDRFSGSKSGTSATLGITGLQTGDEADYYCAAWDTSLSARVFGGGTKVTVLGRAEVQLVESGGGLVQPGGSLRLSCAASGFTFSTYAMNWVRQAPGKGLEWVSRIRSKYNNYATYYADSVKDRFTISRDDSKNTLYLQMNSLRAEDTAVYYCARHGNFGNSYVSWFAYWGQGTMVTVSSASTKGPSVFPLAPCSRSTSESTAALGCLVKDYFPEPVTVSWNSGALTSGVHTFPAVLQSSGLYSLSSVVTVPSSNFGTQTYTCNVDHKPSNTKVDKTVGGGGSHHHHHHH
light: QVQLQESGPGLVKPSETLTLTCSVSGGSISGYYWSWIRQPPGMGLEWIGSVHHSGSTSYNPSLKSRVTISVDTSKNQFSLKLNSVTAADTAVYYCARYRGSGLDYWGQGTLVTVSSGGGGSGGGGSGGGGSQSVLTQPPSVSAAPGQKVTISCSGDSSNIGKNYVSWYQQLPGTAPKLLIYENNERPSGVPDRFSGSKSGTSATLGITGLQTGDEADYYCAAWDTSLSARVFGGGTKVTVLGRAQAVVTQEPSLTVSPGGTVTLTCRSSTGAVTTSNYANWVQQKPGQAPRGLIGGTNKRAPGTPARFSGSLLGGKAALTLSGVQPEDEAEYYCALWYSNLWVFGGGTKLTVLGQPKAAPSVTLFPPSSEELQANKATLVCLISDFYPGAVTVAWKADSSPVKAGVETTTPSKQSNNKYAASSYLSLTPEQWKSHRSYSCQVTHEGSTVEKTVAPTECS
notes: (H + L) format has a GlyArgAla linker on both chains; His tag at the C-terminus of the Fd; also called double fusion of EpCAM2.2 scFv to both the HC and LC of hu-1F3.1 Fab
**Q.** Which “EC50 (read off the curve)” value [10] does the source give for B7 here?
**A.** ~3 nM

**Q.** What about the “EC50 (read off the curve)” value [11] of the same binder?
**A.** ~3 nM
